These results are taken from publication PMC3996851, “Characterization of 3-phosphoglycerate kinase from Corynebacterium glutamicum and its impact on amino acid production” (BMC Microbiology, 2014).

Data set [1] concerns the target T1, PGK^His (C. glutamicum 3-phosphoglycerate kinase) (Corynebacterium glutamicum, UniProt Q01655).
T1 construct: full length, N-terminal tenfold His tag (pET16b); expressed in E. coli BL21(DE3), Ni-NTA purified; 47 kDa monomer, 104 kDa homodimer
The data set is described as follows: coupled GAPDH/NADH assay, absorbance […] nm. Type of data set: biochemical.

Substrate in data set [2]: Nc1ncnc2c1ncn2[C@@H]1O[C@H](COP(=O)(O)OP(=O)(O)OP(=O)(O)O)[C@@H](O)[C@H]1O
Put plainly: purified protein. The note with it: gluconeogenic direction, co-substrate 3-PG, 2 mM Mg2+, 100 mM TEA-Cl pH 7.4, 30°C. Format: biochemical, Corynebacterium glutamicum.

Substrate in data set [3]: O=C(O)[C@H](O)COP(=O)(O)O
Put plainly: purified protein. Type of data set: biochemical, Corynebacterium glutamicum. Particulars: gluconeogenic direction, co-substrate ATP, 2 mM Mg2+, 100 mM TEA-Cl pH 7.4, 30°C.

Data set [4] deals with the molecule itself. Put plainly: SEC; gel filtration on a Bio-Prep SE-1000/17 column calibrated with BioRad standards; 100 mM TEA-Cl pH 7.4 with the optimal conditions for activity; two runs, 2 mg/ml PGK mixed with standards and 4 mg/ml PGK; single peak of about 104 kDa, fractions checked by enzyme activity (data not shown). For orientation: SEC sorts molecules by how far they enter the pores of the column.

As to `Nc1ncnc2c1ncn2[C@@H]1O[C@H](COP(=O)(O)OP(=O)(O)O)[C@@H](O)[C@H]1O` [ADP], in data set [1], the Ki (as a rule, the dissociation constant of the complex between target and ligand, obtained from inhibition or displacement) turned out to be 100 µM.

B1: 3-phosphoglycerate kinase (PGK) from Corynebacterium glutamicum, N-terminally His-tagged (enzyme, Corynebacterium glutamicum ATCC 13032, UniProt Q01655 1-405, looked up)
chain: MAVKTLKDLLDEGVDGRHVIVRSDFNVPLNDDREITDKGRIIASLPTLKALSEGGAKVIVMAHLGRPKGEVNEKYSLAPVAEALSDELGQYVALAADVVGEDAHERANGLTEGDILLLENVRFDPRETSKDEAERTAFAQELAALAADNGAFVSDGFGVVHRAQTSVYDIAKLLPHYAGGLVETEISVLEKIAESPEAPYVVVLGGSKVSDKIGVIEALAAKADKIIVGGGMCYTFLAAQGHNVQQSLLQEEMKATCTDLLARFGDKIVLPVDLVAASEFNKDAEKQIVDLDSIPEGWMSLDIGPESVKNFGEVLSTAKTIFWNGPMGVFEFAAFSEGTRGIAQAIIDATAGNDAFSVVGGGDSAASVRVLGLNEDGFSHISTGGGASLEYLEGKELPGVAILAQ
notes: 3-phosphoglycerate kinase (EC 2.7.2.3) of Corynebacterium glutamicum ATCC 13032, encoded by cg1790/pgk; amplified from genomic DNA with primers from start to stop; monomer 47 kDa by SDS-PAGE; The methods say an N-terminal tenfold His tag (pET16b); also called PGK^His; PGKHis; source: E. coli BL21 (DE3) (pET16b-pgk), purified (Ni-NTA, desalted on Sephadex G25); not shown: His10, N-terminal, kept
On to B1, for which, in the data set “purified protein [2]”, the Km (usually the substrate concentration at which the rate is half of its maximum) worked out at 110 µM; the Vmax is listed as 150 U/mg; the kcat (commonly the maximal rate divided by the concentration of active sites) stood at 130 s⁻¹; the kcat/Km – broadly, the turnover number divided by the Michaelis constant – was found to be 592000 M⁻¹ s⁻¹. Further, in “purified protein [3]”, the Km was determined as 260 µM, the Vmax stood at 220 U/mg, the kcat stood at 191 s⁻¹ and the kcat/Km came to 733000 M⁻¹ s⁻¹. The stoichiometry N (in general, the number of molecules, sites or subunits per partner or assembly) in data set [4] was 2.
